The target of this experiment is CVS-11. Nature of the experiment: cell-based or functional assay.

1 molecule from patent publication CN101696242A can be followed below.

B1: 人源抗狂犬病毒中和抗体Fab (Fab, V domains shown)
VH: ELLESGGGLVQPGGSLRLSCAASGFTFSSYAMSWVRQAPGKGLEWVSSINRSGDITTYADSVKGRFTISRDNSKNTLYLQMNSLRAEDTAVYYCAKKTRRFDYWGQGTLVTVSS
VL: ESALTQPRSVSGSPGQSVTISCTGTSSDIGGYNFVSWYQQHPGKAPKLMIYDATKRPSGVPDRFSGSKSGNTASLTISGLQAEDEADYYCCSYAGDYTPGVVFGGGTKLTVLG
The molecule B1 displayed a 中和效价 (狂犬病荧光抗体病毒中和试验 FAVN, BHK-21细胞) of 10.3 IU/mL.
